{
  "source": "the nanobody polyreactivity screen of Harvey et al. (2022)",
  "data": [
    {"test": "yeast display, Sf9 membrane polyspecificity reagent, FACS + sequencing; frameworks hold sequencing errors", "in_short": "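Galactose induction of a Saccharomyces cerevisiae BJ5465 synthetic nanobody display library ran 36–48 hours. The cells were then stained for 1 hour at 4 °C with 10% biotinylated, detergent-solubilized Sf9 membrane reagent, pulled down on streptavidin microbeads and FACS-sorted into low and high (top ~1%) gates on expression and reagent-binding fluorescence. Labels for polyreactivity follow the gate of origin.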", "values": [
      {"sequence": "QVQLVESGGGLVQAGGSLRLSCAASGSYLRYYAMGWYRQAAGKERELVAAISRSVTNTYYADSVKGRFTISRDYAKNTVYLQMNSLKPEDTAVDYCARVQYVRNVQYRYGGWYTRYYWGQGTQVTVSS", "polyreactivity (PSR sort gate)": "high polyreactivity"},
      {"sequence": "QVQLVESGGGLVQAGGSLRLSCAASGSYLRYYAMGWYRQAPGKERELVAAISRSGTNTYYADSVKGRFTISRDNAKNTVYLQMNSLKPEDTAVYYCAARSWKRRVGRDYWGQGTQVTVSS", "polyreactivity (PSR sort gate)": "high polyreactivity"},
      {"sequence": "QVQLVESGGGLVQAGGSLRLSCAASGTFAGNAMGWYRQAPGKERELVAAINSGGSTNYADSVKGRFTISRDNAKNTVYLQMKSLKPEDTAVYYCAADSVWSPVDYDYWGQGTQVTVSS", "polyreactivity (PSR sort gate)": "low polyreactivity"},
      {"sequence": "QVQLVESGGGLVQAGGSLRLSCAASGTFFGYAMGWYRQAPGKERELVAAITSGGSTYYADSVKGRFTISRDNAKNTVYLQMNSLKPEDTAVYYCARVYSRWSYRYDYWGQGTQVTVSS", "polyreactivity (PSR sort gate)": "low polyreactivity"},
      {"sequence": "QVQLVESGGGLVQAGGSLRLSCAASGTFQSNAMGRYRPAPGKERELVAAITSGGSTNYADSVKGRFTISRDNAKNTVYLQMNSLKPEDTAVYYCAAVRRYRASRGSLYYYWGLGTQVTVSS", "polyreactivity (PSR sort gate)": "high polyreactivity"},
      {"sequence": "QVQLVESGGGLVQAGGSLRLSCAASGTFSQYAMGWYRQAPGKERELVAAISQGGGSTYYADSVKGRFTISRDNAKNTVYLQMNSLKPEDTAVYYCARSRSYWGIVYGRYDYWGQGTQVTVSS", "polyreactivity (PSR sort gate)": "high polyreactivity"},
      {"sequence": "QVQLVESGGGLVQAGGSLRLSCAASGTFVTYMGWYRQAPGKERELVAAIRNGGSTNYADSVKGRFTISRDKAKNTVYLQMNSLKPEDTAVYYCAADRAGSIMNYWGQGTQVTVSS", "polyreactivity (PSR sort gate)": "low polyreactivity"},
      {"sequence": "QVQLVESGGGLVQAGGSLRLSCAASGTFYGNTMGWYRRPPGKERELVAVISIDGSTNYADSVKGRFTISRDNAKNTVYLQMNSLKPEDTAVYYCAADYWRQFRDYDYWGQGTQVTVSS", "polyreactivity (PSR sort gate)": "low polyreactivity"},
      {"sequence": "QVQLVESGGGLVQAGGSLRLSCAASGTFYWNVMGWYRQAPGKEREFVASITLSGTSTYYADSVKVRFTISRDNAKNTVYLQMNSLKPEDTAVYYCAVAARWPAPVPHYYYWGQGTQVTVSS", "polyreactivity (PSR sort gate)": "low polyreactivity"},
      {"sequence": "QVQLVESGGGLVQAGGSLRLSCAASGTIFGSNAMGWYRQAPGKERELVAAISWRGGRTYYADSVKGRFSISRDYAKNTVYLQMYSLKPVETAVYYCAKRWRRRFVDVWSLYDYWGQGTQVTVSS", "polyreactivity (PSR sort gate)": "low polyreactivity"},
      {"sequence": "QVQLVESGGGLVQAGGSLRLSCAASGTIFKSNSMGWYRQAPGKERELVAAISNGGITNYADSVKGRFTISRDNAKNTVYLQMNSLKPEDTAVYYCATSDVREIWVDYWGQGTQVTVSS", "polyreactivity (PSR sort gate)": "low polyreactivity"},
      {"sequence": "QVQLVESGGGLVQAGGSLRLSCAASGTIFLANAMGWYRQAPEKERELVAAINSGDNSYYADSVKGRFTISRDNAKITVYLQINSLKPEDTAVYYCAAEYTGYFYAYEYWGQGSQVTVSS", "polyreactivity (PSR sort gate)": "high polyreactivity"},
      {"sequence": "QVQLVESGGGLVQAGGSLRLSCAASGTIFRGNAMGWYRQAPGTERELVAAINKSGGSTYYADSVKGRFTISRDNAKNTVYLQMNSLKPEDTAVYYCAAVYKRLQPYGYWGQGTQVTVSS", "polyreactivity (PSR sort gate)": "high polyreactivity"},
      {"sequence": "QVQLVESGGGLVQAGGSLRLSCAASGTIFRRSAMGWDRQAPGKERELVATITSTDSTNYADSVKGRFTISRDNAKNTVYLQMNSLKPEDTAVYYCAKRPYHYRRNSEYYYWGQGTQVTVSS", "polyreactivity (PSR sort gate)": "low polyreactivity"},
      {"sequence": "QVQLVESGGGLVQAGGSLRLSCAASGTIFSLYAMGWYRQAHGKERELVAAISGSGSSTHYADSVKGRFTISRDNAKNTVYLQMNSLKPEDSAVYYCAATYWTNSYYYWGQGTQVTVSS", "polyreactivity (PSR sort gate)": "low polyreactivity"},
      {"sequence": "QVQLVESGGGLVQAGGSLRLSCAASGTIFTINAMGWYRQAAGKERELVAAISWSGAHTYYADSVKGRFTISRDNAKNTVFLQMNSLKPEDTAVYYCATGYNYLERNTGYFHRFDYWGQGTQVTVSS", "polyreactivity (PSR sort gate)": "low polyreactivity"},
      {"sequence": "QVQLVESGGGLVQAGGSLRLSCAASGTIFVLYAMGWYRQAPGKERELVAAITTGGGTNYADSVKGRFTISRDNEKNTVYLQMNRLKPEDTAVYYCAADTGWYDDWTHDYWGQGTQVTVSS", "polyreactivity (PSR sort gate)": "low polyreactivity"},
      {"sequence": "QVQLVESGGGLVQAGGSLRLSCAASGTIYVTNGMGWYRQAPGKERELVAVISWGGGNTYYADSVKRRFTISRDNAKNTVYLQMNILKPEDTAVYYCAADPISEFYWGVKDRYDYWGQGTQVTVSS", "polyreactivity (PSR sort gate)": "low polyreactivity"},
      {"sequence": "QVQLVESGGGLVQAGGSLRLSCAASGTLSRYAMGWYIQAPGKERELVAAISWTGGSTYYADSVKGRFTISRDNAKYTVYLQMNSLKPEDTAVYYCNGAWRLRGDATYGYWGQGTQVTVSS", "polyreactivity (PSR sort gate)": "high polyreactivity"},
      {"sequence": "QVQLVESGGGLVQAGGSLRLSCAASGTSGYYAMGWYRQAPGKERELVAGISIGGSTNYADSVKGRFTISRDNAKNTVYLQMNSLKPEDTAVYYCAVDGYVAFSPDRNNYWGQGTQVTLSS", "polyreactivity (PSR sort gate)": "low polyreactivity"},
      {"sequence": "QVQLVESGGGLVQAGGSLRLSCAASGTTFDSYAMGWYRQAPGKERELVPAITSSASTNYADSVKGRFTISRDNAKNTVYLQMNSLKPEDNAVYYCYADAYRLSFGGFTSDDEFVYWGLGTQVTVSS", "polyreactivity (PSR sort gate)": "high polyreactivity"},
      {"sequence": "QVQLVESGGGLVQAGGSLRLSCAASGTTFDVYAMGWSRQAPGKERELVAAITSGGTTNYADSVKGRFTISRDNAKNPVFFQMNSLKPEDTAVYYCAKDSRNVYWDYGYWGQGTQVSVSS", "polyreactivity (PSR sort gate)": "low polyreactivity"},
      {"sequence": "QVQLVESGGGLVQAGGSLRLSCAASGTTFDVYAMGWYRQAPGKERELVAAISTRGTRTYYADSVKGRFTISRDNAKNTVYLQMNSLKPEETAVYYCAAYVYDGETVSRFDYWGQGTQVTVSS", "polyreactivity (PSR sort gate)": "high polyreactivity"},
      {"sequence": "QVQLVESGGGLVQAGGSLRLSCAASGTTFFINDLGWYRQAPGKERELVAAISWSGDSTYYPDSVKGRFTISRDNAKNTVYLQMKSLKPEDTAVYYCAADWGFVQPGWSYNYWGQGTQVTVSS", "polyreactivity (PSR sort gate)": "high polyreactivity"},
      {"sequence": "QVQLVESGGGLVQAGGSLRLSCAASGTTFFNNAMGWYRQAPGKERELVAAITSGRTYYADSVKGRFTISRDNAKNTVYLLMNSLKPEDTAVDYCAKDADQDADKPFQFTMDYWGQGTEVTVSS", "polyreactivity (PSR sort gate)": "low polyreactivity"},
      {"sequence": "QVQLVESGGGLVQAGGSLRLSCAASGTTFILNAMGWYRQAPGKDRELVATISSSDTSTYYADSVKGRFTISRDNAKNTVYLQMNSLKPEDTAVYYCNADYYTTSYLQRVFHYGVEYDYWGQGTQVTVSS", "polyreactivity (PSR sort gate)": "low polyreactivity"},
      {"sequence": "QVQLVESGGGLVQAGGSLRLSCAASGTTFNAYAMGWYRQAPGKDRELVAAISTSGGRTYYADSVKGRYTISRDNAKNTVYLQMNSLKPEDTAVNYCAAVLGRSPGLNYWGQGTQVTVSS", "polyreactivity (PSR sort gate)": "high polyreactivity"},
      {"sequence": "QVQLVESGGGLVQAGGSLRLSCAASGTTFYHNVMGWYRQAPGKERELVASIDTGDSTNYADSVKGRFTISRDNAKNTVYLQMNSLKPEDTAVYYCNADSYPALNKRGYDYWGQGTQVTVSS", "polyreactivity (PSR sort gate)": "low polyreactivity"},
      {"sequence": "QVQLVESGGGLVQAGGSLRLSCAASGTTFYKYSMGWYRQAPGKERELVAAITSRGDRTYYADSVKGRFTISRDNANNTVYLQMNSLKPEDTAVYYCAATRWRDAGHSYDYWGQGTQVTVSS", "polyreactivity (PSR sort gate)": "high polyreactivity"},
      {"sequence": "QVQLVESGGGLVQAGGSLRLSCAASGTTFYPNAMGWYRQAPGKERELVAAISWSGGRTYYADSVKGRFTISRDNAKNTVYLQMNSLKPEDTAVYYCNRYHRTSWRAKYDYWGQGTQVTVSS", "polyreactivity (PSR sort gate)": "high polyreactivity"},
      {"sequence": "QVQLVESGGGLVQAGGSLRLSCAASGTTLVIYAMGWYRQAPGKERELVAAINFSDGSTSYADSVKGRFTKSRDNAKNTVYLQMISLKPEDTAVYYWGQGTQVTVSS", "polyreactivity (PSR sort gate)": "low polyreactivity"},
      {"sequence": "QVQLVESGGGLVQAGGSLRLSCAASGTYFGYAMGWYRQAPGKETELVAAITSGGSTYYADSVKGRFTISRDNAKNTVYLQMNSLKPEDTADYYCARVYSRWSYRYDYWGQGSQVTVSS", "polyreactivity (PSR sort gate)": "low polyreactivity"},
      {"sequence": "QVQLVESGGGLVQAGGSLRLSCAASGTYTNAMGWYRQAPGKERELVAAISSTVGRTYYADSVKGRFTISRDNAKNPVYLQMNSLKPEDTAVYYCATTHGRTYYYWGQGTLVTVSS", "polyreactivity (PSR sort gate)": "high polyreactivity"},
      {"sequence": "QVQLVESGGGLVQAGGSLRLSCAASGVIFDFNAMGWYRQAPGKERELAASISRSGGSTYYADSVKGRFTISRDNAKNTVYLQMNSLKPEDTAVYYCAKASKGQYRFDYWGQGTQVTVSS", "polyreactivity (PSR sort gate)": "low polyreactivity"},
      {"sequence": "QVQLVESGGGLVQAGGSLRLSCAASGVTFVDYAMGWYRQAPGKERELVAAITVSGDSTYYADSVKGRFTLSRDNAKNTVYLQMNSLKPEDTAVYYCAADPGYYDGGYWGQGTQVTVSS", "polyreactivity (PSR sort gate)": "low polyreactivity"},
      {"sequence": "QVQLVESGGGLVQAGGSLRLSCAASGVYAMGWYRQAPGQERELVAAITSVGSTNYADSVKGRFTISRDNAKNTVYLQMNSLKPEDTAVYYCNTDRDTDELDYWGQGTQVTVSS", "polyreactivity (PSR sort gate)": "low polyreactivity"},
      {"sequence": "QVQLVESGGGLVQAGGSLRLSCAASGYFDLNAMGWYRQAPGKERELVAAITDGGSTNYADSVKGRFTISRDNAKNTVYLQMNSLKPEDTAVYYCAADRGHTILHGGHWGQGTQVTVSS", "polyreactivity (PSR sort gate)": "low polyreactivity"},
      {"sequence": "QVQLVESGGGLVQAGGSLRLSCAASGYIFAAYTMGWYRQAPGKEREFVAAITRSGGSTYYADSVKWRFTISRDNAKNTVYLQMNSLKPEDTAVYYCAARRWRYFPDYDYWGQGTQVTVSS", "polyreactivity (PSR sort gate)": "high polyreactivity"},
      {"sequence": "QVQLVESGGGLVQAGGSLRLSCAASGYIFAINAMGWYRQAPGKERELVAAIRSGGRTYYADSVKGRFTISRDKAKNTVYLQMNSLKPEDTAVYYCNAGGKWIGSDYWGQGTQVTVSS", "polyreactivity (PSR sort gate)": "high polyreactivity"},
      {"sequence": "QVQLVESGGGLVQAGGSLRLSCAASGYIFAIYAMGCYRQAPGKERELVAAISTSGGSTYYADSVKGRFTISRDNAKNTVYLQMNSLKPDDTAVYYCARPTTYGYYYWGQGTQVTVSS", "polyreactivity (PSR sort gate)": "high polyreactivity"},
      {"sequence": "QVQLVESGGGLVQAGGSLRLSCAASGYIFDDYAMGWYRQAPGKERELVAAISRGGSTYYADSVKGRFTISRDNSKNTVYLQMNSLKPEDTEVYYCAAVYRVRRITYVYWGQGTQVTVSS", "polyreactivity (PSR sort gate)": "high polyreactivity"},
      {"sequence": "QVQLVESGGGLVQAGGSLRLSCAASGYIFDKNAMGWYRQAPGKERELVAAITSSGGRTYYADSVKGRFTISRDNAKNTVYLQMNSLKPEDTAVYYCNKLYRTSGEYVYWGQGTQVTVSS", "polyreactivity (PSR sort gate)": "high polyreactivity"},
      {"sequence": "QVQLVESGGGLVQAGGSLRLSCAASGYIFDPNAMGWYRQAPGKERELVAAISGSGTSTYYADSVKGRFTISRDNAKNTVYLQMNSLKPEDTAVYYCAAAHDAGPVRYYYWGHGTQVTVSS", "polyreactivity (PSR sort gate)": "low polyreactivity"}
    ]}
  ]
}
